Data from the nanobody polyreactivity screen of Harvey et al. (2022).

Test: yeast display, Sf9 membrane polyspecificity reagent, FACS + sequencing; frameworks hold sequencing errors
Outline: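 Nanobodies came from a synthetic yeast display library in Saccharomyces cerevisiae BJ5465, induced with galactose for 36–48 hours and stained for 1 hour at 4 °C with 10% biotinylated, detergent-solubilized Sf9 membrane reagent. Cells were enriched on streptavidin microbeads and then FACS-sorted, with low and high (top ~1%) gates set on anti-HA fluorescence for expression and streptavidin fluorescence for reagent binding. Each polyreactivity label reflects the gate a clone came from. Genes were amplified by colony PCR, sequenced by MiSeq 2 × 250 and filtered by CDR length.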

Sequence	polyreactivity (PSR sort gate)
QVQLVESGGGLVQAGGSLRLSCAASGSIFFQNAMGWYRQAPGKESEFVAAITWRGASTYYADSVKGRFTISRDNATNTVYLQMNSLKPEDTAVYYCAARQHYYYGWYYYWGQGTQVTVSS	high polyreactivity
QVQLVESGGGLVQAGGSLRLSCAASGSIFFRNAMGWYRQAPGKERELVAAITFSGGRTYYADSVKGRFTISRDTANNTVYLQMNSMKPEDTAVYYCAGRRSYTYARYDYWGQGTQVTVSS	high polyreactivity
QVQLVESGGGLVQAGGSLRLSCAASGSIFFRYAMGWYRQAPGKERELVAAISSSGGSTYYADSVKGRFTISRDNAKNTVYLQMNSLKPEDTAVYYCAARYYRKYYYSPFDYWGQGTQVTVSS	high polyreactivity
QVQLVESGGGLVQAGGSLRLSCAASGSIFFRYATMGWYRHAPGKESELVAAISRSGGSTYYADSVKGRFTISRDNGKNTVYLQMNSLKPEDTAVYYCAKVSPSLRASGYDYWGQGTQLTVSS	high polyreactivity
QVQLVESGGGLVQAGGSLRLSCAASGSIFFSNAMGWYRQAPGKERELVAAITSTGGSTYYADSVKGRFTISRDNAKNTVDLQMNSLKPEDTAVYYCAAASRRGYYYWGQGTQVTVSS	high polyreactivity
QVQLVESGGGLVQAGGSLRLSCAASGSIFFSNTMGWYRQAPGKERELVASIRETAGSTNYADSLKGRFTISRDYAKITVYLQMHSLKPEDTAVYYCAARYSPTRYHYGYWGQGTQVTVSS	low polyreactivity
QVQLVESGGGLVQAGGSLRLSCAASGSIFFSNTMGWYRQAPGKERELVASITGDSSTNYADSVKGRFTISRDNAKNTVYLQMNSLKPEDTAVYYCNAGRVLRYVGHYSGDLEYWGQGTQVTVSS	low polyreactivity
QVQLVESGGGLVQAGGSLRLSCAASGSIFFSYAMGWYRKAPGKERELVAAIDYSGGGTYYADSVKGRFTISRDNAKNTVYLQMNSLKPEDTAVYYCKSDTEVWADTFISYRALNYWGQGTQVTVSS	low polyreactivity
QVQLVESGGGLVQAGGSLRLSCAASGSIFFTNAMGWYRQAPGKERELVASITSSGGSTYYADSVKGRFTISRDNAKNTVYLQMNSLKPEDTAVYYCARDRWPFWYSPSGVYRYYYWGQGTQVTVSS	low polyreactivity
QVQLVESGGGLVQAGGSLRLSCAASGSIFFTYAMGWYRQEPGKERELVAAINSSGGSTYYADSVKGRFTISRDNAKNTVYLQMNSLKPEDTAVYYCAAYRYWSTPRYYWGQGTQVTVSS	high polyreactivity
QVQLVESGGGLVQAGGSLRLSCAASGSIFFTYVMGWYRQAPGKERELVAAISSDDNTNYADSVKGRFTISRDNAKNTVYLQMNSLKPEDTAVYYCNADTTLYPYYDYGYYDYDYWGQGTQVTVSS	low polyreactivity
QVQLVESGGGLVQAGGSLRLSCAASGSIFFVYAMGWYRQAPGKERELVAAITWSGGRTYYADSVKGRFTISRDNAKNTVYLQMNSLKPEDTAVYYCAARKYSDYFTPRYYYWGQGTQVTVSS	high polyreactivity
QVQLVESGGGLVQAGGSLRLSCAASGSIFFWNTMGWYRQAPGKERELVAAISSGGSTYYADSVKGRFTISRDTAKNTVYLQMNSLRPEDTAVYYCAAVYSGLYSYYYWGQGTQVTVSS	low polyreactivity
QVQLVESGGGLVQAGGSLRLSCAASGSIFFWYAMGWYRQAPGKVRELVAAISYSGSRTYYSDSVKGRFTISRDNAKNTVYLQMNSLKPEDTAVDYFNVSLYSGAEYDYWGQGTQVTVSS	high polyreactivity
QVQLVESGGGLVQAGGSLRLSCAASGSIFFYAMGWYIQAPGKERQLVAAISWRGGSTYADSVKGRFTISRDNAKKTVYLQMKSLKPEDTAVYYCAKDWVRSGAVIDYDYWGQGTQVTVSS	high polyreactivity
QVQLVESGGGLVQAGGSLRLSCAASGSIFFYAMGWYRQAPGKERELVADITYTGGSKYADSVKGRFTISRDYAKNTVYLQMNSLKPEDTAVYYCAKLDGGLFDYWGQGTQVTVSS	low polyreactivity
QVQLVESGGGLVQAGGSLRLSCAASGSIFFYNAMGWYRQAPGKERELVAAISRGGNTNYADSVKGRFTISRDNANNTVYLQMNSLKPEDTAVYYCNAESLSGAHGYWGQGTQVTVSS	low polyreactivity
QVQLVESGGGLVQAGGSLRLSCAASGSIFFYYAMGWYRQAPGKERELVASISTDGSTYADSVKGRFTISRDNAKNTVSLQMNSLKPEDTAFYYCATRGAEAERFASYDFDYWGQGTQVTVSS	low polyreactivity
QVQLVESGGGLVQAGGSLRLSCAASGSIFFYYTMGWYRQAPGKEREMVAAISVGGSTYYADSVKGRFTISSDNAKNTVYLQMKSLKPEDTAVYYCNAVPAKGYVTVVRYYYWGLGTQVTVSS	low polyreactivity
QVQLVESGGGLVQAGGSLRLSCAASGSIFGANAMGWYRKAPGKERELVAAISTRGGRTYYADSVKGRFTISRDNAKNTVYLQMNSLKPEDTAVYYCATSGGRPYKYEYWGQGTQVTVSS	high polyreactivity
QVQLVESGGGLVQAGGSLRLSCAASGSIFGDNAMGWYRQAPGKERELVAAIDSDGSTNYADSVNGRFTISRDNAKNTVYLQMNSLKPEDTAVYYCAASEPYSKPYTYDYWGQGTQVTVSS	low polyreactivity
QVQLVESGGGLVQAGGSLRLSCAASGSIFGDNAMGWYRQAPGKERELVAAITSSGGSTYYADSVKGRFTISRDNAKNSVYLQMNSLKPEDTAVYYCNADFGYGWYLRYDYWGLGTQVTVSS	high polyreactivity

Sequence	polyreactivity (PSR sort gate)
QVQLVESGGGLVQAGGSLRLSCAASGSIFGDYVMGWYRQAPGKERELVAAISGNGGRTYYADSVKGRFTISRDNAKNTVYLQMNSLKPEDTAVYYCAKVRSVTIGRDYWGQGTQVTVSS	high polyreactivity
QVQLVESGGGLVQAGGSLRLSCAASGSIFGDYVMGWYRQAPGNERELVAAINRGGSTYYADSVKGRFSISRDNAKNTVYLQMNSLTAEDTAVYFCAAGYPSWYYCYPYDSWGQGTQVTVSS	low polyreactivity
QVQLVESGGGLVQAGGSLRLSCAASGSIFGENAMGWYRQAPGKERELVAAITWSGASTYYADSVKGRFTISRDNAKNTVYLQMNSLKPEDTAVYYCNADRYVRYSTFDYWGQGTQVTVSS	high polyreactivity
QVQLVESGGGLVQAGGSLRLSCAASGSIFGFNAMGWYRQAPGKERELVAAINGGGTTYYADSVKGRFTISRDNAKNTVYLQMNSLIPEDTAVYYCAATPNGYYYLGYDYWGQGTQVTVSS	low polyreactivity
QVQLVESGGGLVQAGGSLRLSCAASGSIFGFNAMGWYRQAPGKERELVAAISSGSTYYADSVKGRFTISRDNAKNTVYLQKNSLKPEDTAVYYCAATTGYSWYGYWGQGPQVTVSS	low polyreactivity
QVQLVESGGGLVQAGGSLRLSCAASGSIFGFNAMGWYRQAPGKERELVASISSSGDSTYYADSVKGRFTISRDNAKNTVYLLMNSLKPEDTAVYYCATEGRTDYNREMEYWGQGTQVTVSS	low polyreactivity
QVQLVESGGGLVQAGGSLRLSCAASGSIFGFYAMGWYRQAPGKERELVAAIRYTGGSTYYADSVKGRFTISRDNAKNTVYLQMNSLKPEDTAVYYCNARTFRRYVSYSRTYVGYDYWGQGTQVTVSS	high polyreactivity
QVQLVESGGGLVQAGGSLRLSCAASGSIFGFYAMGWYRQAPGKERELVAAISDSGDSTYYADSVKGRFTISRDNAKNTVYLQMNSLKPEDTAVYYCATDGRSNYYWGDYWGQGTQVTVSS	low polyreactivity
QVQLVESGGGLVQAGGSLRLSCAASGSIFGFYAMGWYRQAPWKERELVAAINSNSGSTYYADSVKGRFTISRDNAKNTVYLQMNSLKPEDTAVYYCAARSPYVTPQGFNYCGQGTQVTVSS	high polyreactivity
QVQLVESGGGLVQAGGSLRLSCAASGSIFGFYMGWYRQAPGKERELVAAISGSGGNTYYADSVKGRFTISRDNAKNTVYLQMNSLKPEDTAVYYCAAVSRHRGWDRYYWGQGTQVTVSS	high polyreactivity
QVQLVESGGGLVQAGGSLRLSCAASGSIFGGNAMGWYRQAPGKERELVAAITTGDGSTYYADSVKGRFTISRDNAKNTVYLQMNSLKPEDTAVYYCAADIVHDRFDYWGQGTQVTVSS	low polyreactivity
QVQLVESGGGLVQAGGSLRLSCAASGSIFGGNAMGWYRQAPGKERELVATITSAGSTYYADSVKGRFTISRDNAKNTVYLQMNSLKPEDTAVYYCAADPTYYWRYYPTRLYVEYDYWGQGTQVTVSS	low polyreactivity
QVQLVESGGGLVQAGGSLRLSCAASGSIFGGNTMGWYRQAPGKERELVAAISWSGGRTYYADSVKGRFTISRDNAKNTVYLQMNSLKPEDTAVYYCAATFRGVLGWYHYEYWGQGTQVTVSS	high polyreactivity
QVQLVESGGGLVQAGGSLRLSCAASGSIFGGYAMGWYRQAPGKERELVAAISSGGSTYYADSVKGRFTISRDNAKNTVYLQMNSLKPEDTAVYYCATSTYADRRNSYYYTRPRFGYWGQGTQVTVSS	high polyreactivity
QVQLVESGGGLVQAGGSLRLSCAASGSIFGGYAMGWYRQAPGKERELVARIRVSGGRTYYADSVKGRFTISRDNAKNTVYLQMISLKPEDTAVYYCAVDRYWWLDGYDYWGQGTQVTVSS	high polyreactivity
QVQLVESGGGLVQAGGSLRLSCAASGSIFGGYAMGWYRQAPGKERELVARITDRGGSTDYADSVKGRFTISRDNAKNTVYLQMNSLKPEDTAVYYCAKRGDRYEKRPRDYWGQGTQVTVSS	low polyreactivity
QVQLVESGGGLVQAGGSLRLSCAASGSIFGGYAMGWYRQAPGKERELVAVISSGGSTNYADSVKGRFTISRDNAKNTVYLQMNSLKPEDTAVYYCAATVIYAYRGHFYQYDYWGQGTQVTVSS	high polyreactivity
QVQLVESGGGLVQAGGSLRLSCAASGSIFGGYAMGWYRQAPGNERELVAAITYSAGNTYYADSVKGRFTISRDNAKNTVYLKMKSLKPEDTAVYYCAARTYRGPQYQYGNNYWGQGTQVTVSS	high polyreactivity
QVQLVESGGGLVQAGGSLRLSCAASGSIFGGYGMGWYRQAPGKERQLVAAITSGSSTYYADSVKGRFTISRDNAKNTVYLQMNSLKPEDTAVYYCAARPYPHSAYQGDYWGRGTQVTVSS	low polyreactivity
QVQLVESGGGLVQAGGSLRLSCAASGSIFGINAMGWYRPAPGKERQLVAAISGSTSRSYYADSVKGRFTISRDNAKNTVYLQMNSLKPEDTAVYYCAVVGLRSVTRRSYYWGQGTQVTVSS	high polyreactivity
QVQLVESGGGLVQAGGSLRLSCAASGSIFGIYAMGWYRQAPGKERELVAAIDSSGTSTYYADSVKGRFTISRDNAKNTVYLQMNSLKPEDTAVYYCAAYHRISKNNYLGQGTQVTVSS	low polyreactivity
